# Molecular target: Maltose binding protein (MBP) (UniProt P0AEX9 27-396)
# Experiment: ELASA; 500 nM aptamer; PBS (137 mM NaCl, 2.7 mM KCl, 10 mM Na2HPO4, 1.8 mM KH2PO4, pH 7.4); ELASA 30 min at 4 C after 3% BSA block; sandwich capture in PBS, temperature not stated
binder,measurement,value
"A-aptamer-ELASA (modified B11) (ssDNA, 3' biotin) DNA: TTCTTTTATTAGTTGATTTTTTTGATTTTGGCAGCTACTGCTTTGGGGGTGCTGAGGCGAAGGACGCAGATGAAGTCTC",binding result,no binding
